Results from US20110263454A1, “Methods of Identifying Functional Characteristics of Promoters, Transcription Modifying Proteins and Transcription Modulating Agents” (Salk Institute for Biological Studies, priority 2008, published 2011).

Tests used:
SREBP1c promoter = test: NHR-promoter luciferase screen, SREBP1c promoter; assay type: cell-based, mouse; conditions: for Luc. act., normalized to lacZ / Normalized Luc. act., normalized to control: SREBP1c promoter, HR component without or with ligand; for mSREBP1-c promoter reporter activity: transcription factor +/- ligand, control = 1.00
In short: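 Values are luciferase activity normalised to LacZ (transfection control) and to a control lacking NHR or ligand. Read-out at 48 h in CV-1 cells carrying 100 ng promoter-reporter, 50 ng receptor (alone or with RXR) and 50 ng LacZ.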

hIRF7 promoter = test: NHR-promoter luciferase screen, hIRF7 promoter; assay type: cell-based, human; conditions: for Normalized Luc. act., normalized to control / Luc. act., normalized to lacZ: IRF7 promoter reporter; for Normalized Luc. act., normalized to control: HR without or with its ligand, relative to control; for Luc. act., normalized to lacZ: hormone receptor (HR) without or with its ligand; for hIRF7 promoter reporter activity: transcription factor +/- ligand, control = 1.00
In short: (§1)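 CV-1 cells were co-transfected with 50 ng NHR (homodimer or NHR/RXR heterodimer), 100 ng promoter-luciferase construct and 50 ng LacZ. Luciferase was normalized to LacZ and to a no-NHR/no-ligand control.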

mADRP promoter = test: NHR-promoter luciferase screen, mADRP promoter; assay type: cell-based, mouse; conditions: for Luc. act., normalized to lacZ / Normalized Luc. act., normalized to control: ADRP promoter, HR/ligand component; for mADRP promoter reporter activity: transcription factor +/- ligand, control = 1.00
In short: as §1

B1: GCNF: Germ Cell Nuclear Factor (NR6A1, GCNF1), cDNA driver (protein, UniProt Q15406 1-480, looked up)
Nuclear receptor subfamily 6 …: MERDEPPPSGGGGGGGSAGFLEPPAALPPPPRNGFCQDELAELDPGTISVSDDRAEQRTCLICGDRATGLHYGIISCEGCKGFFKRSICNKRVYRCSRDKNCVMSRKQRNRCQYCRLLKCLQMGMNRKAIREDGMPGGRNKSIGPVQISEEEIERIMSGQEFEEEANHWSNHGDSDHSSPGNRASESNQPSPGSTLSSSRSVELNGFMAFREQYMGMSVPPHYQYIPHLFSYSGHSPLLPQQARSLDPQSYSLIHQLLSAEDLEPLGTPMLIEDGYAVTQAELFALLCRLADELLFRQIAWIKKLPFFCELSIKDYTCLLSSTWQELILLSSLTVYSKQIFGELADVTAKYSPSDEELHRFSDEGMEVIERLIYLYHKFHQLKVSNEEYACMKAINFLNQDIRGLTSASQLEQLNKRYWYICQDFTEYKYTHQPNRFPDLMMCLPEIRYIAGKMVNVPLEQLPLLFKVVLHSCKTSVGKE
- Luc. act., normalized to lacZ (SREBP1c promoter): 368.2
- Normalized Luc. act., normalized to control (SREBP1c promoter): 1.1
- mSREBP1-c promoter reporter activity (SREBP1c promoter): 1.14
- Normalized Luc. act., normalized to control (hIRF7 promoter): 1.1
- Luc. act., normalized to lacZ (hIRF7 promoter): 28.4
- hIRF7 promoter reporter activity (hIRF7 promoter): 1.08
- Luc. act., normalized to lacZ (mADRP promoter): 523.7
- Normalized Luc. act., normalized to control (mADRP promoter): 1.1
- mADRP promoter reporter activity (mADRP promoter): 1.05

B2: NR4a2: NR4a2 (NR4A2; NURR1), nuclear hormone receptor cDNA driver (protein, UniProt P43354 1-598, looked up)
Nuclear receptor subfamily 4 …: MPCVQAQYGSSPQGASPASQSYSYHSSGEYSSDFLTPEFVKFSMDLTNTEITATTSLPSFSTFMDNYSTGYDVKPPCLYQMPLSGQQSSIKVEDIQMHNYQQHSHLPPQSEEMMPHSGSVYYKPSSPPTPTTPGFQVQHSPMWDDPGSLHNFHQNYVATTHMIEQRKTPVSRLSLFSFKQSPPGTPVSSCQMRFDGPLHVPMNPEPAGSHHVVDGQTFAVPNPIRKPASMGFPGLQIGHASQLLDTQVPSPPSRGSPSNEGLCAVCGDNAACQHYGVRTCEGCKGFFKRTVQKNAKYVCLANKNCPVDKRRRNRCQYCRFQKCLAVGMVKEVVRTDSLKGRRGRLPSKPKSPQEPSPPSPPVSLISALVRAHVDSNPAMTSLDYSRFQANPDYQMSGDDTQHIQQFYDLLTGSMEIIRGWAEKIPGFADLPKADQDLLFESAFLELFVLRLAYRSNPVEGKLIFCNGVVLHRLQCVRGFGEWIDSIVEFSSNLQNMNIDISAFSCIAALAMVTERHGLKEPKRVEELQNKIVNCLKDHVTFNNGGLNRPNYLSKLLGKLPELRTLCTQGLQRIFYLKLEDLVPPPAIIDKLFLDTLPF
- Luc. act., normalized to lacZ (SREBP1c promoter): 456.2
- Normalized Luc. act., normalized to control (SREBP1c promoter): 1.4
- mSREBP1-c promoter reporter activity (SREBP1c promoter): 1.42
- Normalized Luc. act., normalized to control (hIRF7 promoter): 0.9
- Luc. act., normalized to lacZ (hIRF7 promoter): 23.2
- hIRF7 promoter reporter activity (hIRF7 promoter): 0.88
- Luc. act., normalized to lacZ (mADRP promoter): 382.8
- Normalized Luc. act., normalized to control (mADRP promoter): 0.8
- mADRP promoter reporter activity (mADRP promoter): 0.77

B3: CTF3: COUP-TF3 (NR2F6), cDNA driver (protein, UniProt P10588 1-404, looked up)
Nuclear receptor subfamily 2 …: MAMVTGGWGGPGGDTNGVDKAGGYPRAAEDDSASPPGAASDAEPGDEERPGLQVDCVVCGDKSSGKHYGVFTCEGCKSFFKRSIRRNLSYTCRSNRDCQIDQHHRNQCQYCRLKKCFRVGMRKEAVQRGRIPHSLPGAVAASSGSPPGSALAAVASGGDLFPGQPVSELIAQLLRAEPYPAAAGRFGAGGGAAGAVLGIDNVCELAARLLFSTVEWARHAPFFPELPVADQVALLRLSWSELFVLNAAQAALPLHTAPLLAAAGLHAAPMAAERAVAFMDQVRAFQEQVDKLGRLQVDSAEYGCLKAIALFTPDACGLSDPAHVESLQEKAQVALTEYVRAQYPSQPQRFGRLLLRLPALRAVPASLISQLFFMRLVGKTPIETLIRDMLLSGSTFNWPYGSGQ
- Luc. act., normalized to lacZ (SREBP1c promoter): 230.3
- Normalized Luc. act., normalized to control (SREBP1c promoter): 0.7
- mSREBP1-c promoter reporter activity (SREBP1c promoter): 0.71
- Normalized Luc. act., normalized to control (hIRF7 promoter): 1.0
- Luc. act., normalized to lacZ (hIRF7 promoter): 25.5
- hIRF7 promoter reporter activity (hIRF7 promoter): 0.97
- Luc. act., normalized to lacZ (mADRP promoter): 462.7
- Normalized Luc. act., normalized to control (mADRP promoter): 0.9
- mADRP promoter reporter activity (mADRP promoter): 0.93

B4: PR: Progesterone Receptor (NR3C3), cDNA driver (protein, UniProt P06401 1-933, looked up)
Progesterone receptor: MTELKAKGPRAPHVAGGPPSPEVGSPLLCRPAAGPFPGSQTSDTLPEVSAIPISLDGLLFPRPCQGQDPSDEKTQDQQSLSDVEGAYSRAEATRGAGGSSSSPPEKDSGLLDSVLDTLLAPSGPGQSQPSPPACEVTSSWCLFGPELPEDPPAAPATQRVLSPLMSRSGCKVGDSSGTAAAHKVLPRGLSPARQLLLPASESPHWSGAPVKPSPQAAAVEVEEEDGSESEESAGPLLKGKPRALGGAAAGGGAAAVPPGAAAGGVALVPKEDSRFSAPRVALVEQDAPMAPGRSPLATTVMDFIHVPILPLNHALLAARTRQLLEDESYDGGAGAASAFAPPRSSPCASSTPVAVGDFPDCAYPPDAEPKDDAYPLYSDFQPPALKIKEEEEGAEASARSPRSYLVAGANPAAFPDFPLGPPPPLPPRATPSRPGEAAVTAAPASASVSSASSSGSTLECILYKAEGAPPQQGPFAPPPCKAPGASGCLLPRDGLPSTSASAAAAGAAPALYPALGLNGLPQLGYQAAVLKEGLPQVYPPYLNYLRPDSEASQSPQYSFESLPQKICLICGDEASGCHYGVLTCGSCKVFFKRAMEGQHNYLCAGRNDCIVDKIRRKNCPACRLRKCCQAGMVLGGRKFKKFNKVRVVRALDAVALPQPVGVPNESQALSQRFTFSPGQDIQLIPPLINLLMSIEPDVIYAGHDNTKPDTSSSLLTSLNQLGERQLLSVVKWSKSLPGFRNLHIDDQITLIQYSWMSLMVFGLGWRSYKHVSGQMLYFAPDLILNEQRMKESSFYSLCLTMWQIPQEFVKLQVSQEEFLCMKVLLLLNTIPLEGLRSQTQFEEMRSSYIRELIKAIGLRQKGVVSSSQRFYQLTKLLDNLHDLVKQLHLYCLNTFIQSRALSVEFPEMMSEVIAAQLPKILAGMVKPLLFHKK
- Luc. act., normalized to lacZ (SREBP1c promoter): 466.4
- Normalized Luc. act., normalized to control (SREBP1c promoter): 1.4
- mSREBP1-c promoter reporter activity (SREBP1c promoter): 1.45
- Normalized Luc. act., normalized to control (hIRF7 promoter): 1.3
- Luc. act., normalized to lacZ (hIRF7 promoter): 33.0
- hIRF7 promoter reporter activity (hIRF7 promoter): 1.25
- Luc. act., normalized to lacZ (mADRP promoter): 497.2
- Normalized Luc. act., normalized to control (mADRP promoter): 1.0
- mADRP promoter reporter activity (mADRP promoter): 1.00

B5: hMR: Mineralocorticoid Receptor (NR3C2, MR), cDNA driver (protein, UniProt P08235 1-984, looked up)
Mineralocorticoid receptor: METKGYHSLPEGLDMERRWGQVSQAVERSSLGPTERTDENNYMEIVNVSCVSGAIPNNSTQGSSKEKQELLPCLQQDNNRPGILTSDIKTELESKELSATVAESMGLYMDSVRDADYSYEQQNQQGSMSPAKIYQNVEQLVKFYKGNGHRPSTLSCVNTPLRSFMSDSGSSVNGGVMRAVVKSPIMCHEKSPSVCSPLNMTSSVCSPAGINSVSSTTASFGSFPVHSPITQGTPLTCSPNVENRGSRSHSPAHASNVGSPLSSPLSSMKSSISSPPSHCSVKSPVSSPNNVTLRSSVSSPANINNSRCSVSSPSNTNNRSTLSSPAASTVGSICSPVNNAFSYTASGTSAGSSTLRDVVPSPDTQEKGAQEVPFPKTEEVESAISNGVTGQLNIVQYIKPEPDGAFSSSCLGGNSKINSDSSFSVPIKQESTKHSCSGTSFKGNPTVNPFPFMDGSYFSFMDDKDYYSLSGILGPPVPGFDGNCEGSGFPVGIKQEPDDGSYYPEASIPSSAIVGVNSGGQSFHYRIGAQGTISLSRSARDQSFQHLSSFPPVNTLVESWKSHGDLSSRRSDGYPVLEYIPENVSSSTLRSVSTGSSRPSKICLVCGDEASGCHYGVVTCGSCKVFFKRAVEGQHNYLCAGRNDCIIDKIRRKNCPACRLQKCLQAGMNLGARKSKKLGKLKGIHEEQPQQQQPPPPPPPPQSPEEGTTYIAPAKEPSVNTALVPQLSTISRALTPSPVMVLENIEPEIVYAGYDSSKPDTAENLLSTLNRLAGKQMIQVVKWAKVLPGFKNLPLEDQITLIQYSWMCLSSFALSWRSYKHTNSQFLYFAPDLVFNEEKMHQSAMYELCQGMHQISLQFVRLQLTFEEYTIMKVLLLLSTIPKDGLKSQAAFEEMRTNYIKELRKMVTKCPNNSGQSWQRFYQLTKLLDSMHDLVSDLLEFCFYTFRESHALKVEFPAMLVEIISDQLPKVESGNAKPLYFHRK
- Luc. act., normalized to lacZ (SREBP1c promoter): 223.2
- Normalized Luc. act., normalized to control (SREBP1c promoter): 0.7
- mSREBP1-c promoter reporter activity (SREBP1c promoter): 0.69
- Normalized Luc. act., normalized to control (hIRF7 promoter): 0.8
- Luc. act., normalized to lacZ (hIRF7 promoter): 21.1
- hIRF7 promoter reporter activity (hIRF7 promoter): 0.80
- Luc. act., normalized to lacZ (mADRP promoter): 306.4
- Normalized Luc. act., normalized to control (mADRP promoter): 0.6
- mADRP promoter reporter activity (mADRP promoter): 0.62

B6: NR4a3: NR4a3 (NR4A3; NOR1), nuclear hormone receptor cDNA driver (protein, UniProt Q92570 1-626, looked up)
Nuclear receptor subfamily 4 …: MPCVQAQYSPSPPGSSYAAQTYSSEYTTEIMNPDYTKLTMDLGSTEITATATTSLPSISTFVEGYSSNYELKPSCVYQMQRPLIKVEEGRAPSYHHHHHHHHHHHHHHQQQHQQPSIPPASSPEDEVLPSTSMYFKQSPPSTPTTPAFPPQAGALWDEALPSAPGCIAPGPLLDPPMKAVPTVAGARFPLFHFKPSPPHPPAPSPAGGHHLGYDPTAAAALSLPLGAAAAAGSQAAALESHPYGLPLAKRAAPLAFPPLGLTPSPTASSLLGESPSLPSPPSRSSSSGEGTCAVCGDNAACQHYGVRTCEGCKGFFKRTVQKNAKYVCLANKNCPVDKRRRNRCQYCRFQKCLSVGMVKEVVRTDSLKGRRGRLPSKPKSPLQQEPSQPSPPSPPICMMNALVRALTDSTPRDLDYSRYCPTDQAAAGTDAEHVQQFYNLLTASIDVSRSWAEKIPGFTDLPKEDQTLLIESAFLELFVLRLSIRSNTAEDKFVFCNGLVLHRLQCLRGFGEWLDSIKDFSLNLQSLNLDIQALACLSALSMITERHGLKEPKRVEELCNKITSSLKDHQSKGQALEPTESKVLGALVELRKICTLGLQRIFYLKLEDLVSPPSIIDKLFLDTLPF
- Luc. act., normalized to lacZ (SREBP1c promoter): 358.6
- Normalized Luc. act., normalized to control (SREBP1c promoter): 1.1
- mSREBP1-c promoter reporter activity (SREBP1c promoter): 1.11
- Normalized Luc. act., normalized to control (hIRF7 promoter): 0.9
- Luc. act., normalized to lacZ (hIRF7 promoter): 24.9
- hIRF7 promoter reporter activity (hIRF7 promoter): 0.95
- Luc. act., normalized to lacZ (mADRP promoter): 351.6
- Normalized Luc. act., normalized to control (mADRP promoter): 0.7
- mADRP promoter reporter activity (mADRP promoter): 0.71
